B1: human SIDT1, full-length (purified, used for cryo-EM and blue native gel) (natural protein, UniProt Q9NXL6 20-827, looked up)
chain: ASPGHPAKSPRQPPAPRRDPFDAARGADFDHVYSGVVNLSTENIYSFNYTSQPDQVTAVRVYVNSSSENLNYPVLVVVRQQKEVLSWQVPLLFQGLYQRSYNYQEVSRTLCPSEATNETGPLQQLIFVDVASMAPLGAQYKLLVTKLKHFQLRTNVAFHFTASPSQPQYFLYKFPKDVDSVIIKVVSEMAYPCSVVSVQNIMCPVYDLDHNVEFNGVYQSMTKKAAITLQKKDFPGEQFFVVFVIKPEDYACGGSFFIQEKENQTWNLQRKKNLEVTIVPSIKESVYVKSSLFSVFIFLSFYLGCLLVGFVHYLRFQRKSIDGSFGSNDGSGNMVASHPIAASTPEGSNYGTIDESSSSPGRQMSSSDGGPPGQSDTDSSVEESDFDTMPDIESDKNIIRTKMFLYLSDLSRKDRRIVSKKYKIYFWNIITIAVFYALPVIQLVITYQTVVNVTGNQDICYYNFLCAHPLGVLSAFNNILSNLGHVLLGFLFLLIVLRRDILHRRALEAKDIFAVEYGIPKHFGLFYAMGIALMMEGVLSACYHVCPNYSNFQFDTSFMYMIAGLCMLKLYQTRHPDINASAYSAYASFAVVIMVTVLGVVFGKNDVWFWVIFSAIHVLASLALSTQIYYMGRFKIDLGIFRRAAMVFYTDCIQQCSRPLYMDRMVLLVVGNLVNWSFALFGLIYRPRDFASYMLGIFICNLLLYLAFYIIMKLRSSEKVLPVPLFCIVATAVMWAAALYFFFQNLSSWEGTPAESREKNRECILLDFFDDHDIWHFLSATALFFSFLVLLTLDDDLDVVRRDQIPVF
modifications: N-glycosylation (three sites resolved in the EM map); disulfide bonds C130-C222 and C212-C271
notes: SIDT1, human, full-length; Homodimer in the cryo-EM map; the self rows mean protomer with protomer; also called SID-1 transmembrane family member 1; source: cloned, expressed and purified
B2: human SIDT2, full-length (purified, used for cryo-EM and blue native gel) (natural protein, UniProt Q8NBJ9 19-832, looked up)
chain: HLGVLGPKNVSQKDAEFERTYVDEVNSELVNIYTFNHTVTRNRTEGVRVSVNVLNKQKGAPLLFVVRQKEAVVSFQVPLILRGMFQRKYLYQKVERTLCQPPTKNESEIQFFYVDVSTLSPVNTTYQLRVSRMDDFVLRTGEQFSFNTTAAQPQYFKYEFPEGVDSVIVKVTSNKAFPCSVISIQDVLCPVYDLDNNVAFIGMYQTMTKKAAITVQRKDFPSNSFYVVVVVKTEDQACGGSLPFYPFAEDEPVDQGHRQKTLSVLVSQAVTSEAYVSGMLFCLGIFLSFYLLTVLLACWENWRQKKKTLLVAIDRACPESGHPRVLADSFPGSSPYEGYNYGSFENVSGSTDGLVDSAGTGDLSYGYQGRSFEPVGTRPRVDSMSSVEEDDYDTLTDIDSDKNVIRTKQYLYVADLARKDKRVLRKKYQIYFWNIATIAVFYALPVVQLVITYQTVVNVTGNQDICYYNFLCAHPLGNLSAFNNILSNLGYILLGLLFLLIILQREINHNRALLRNDLCALECGIPKHFGLFYAMGTALMMEGLLSACYHVCPNYTNFQFDTSFMYMIAGLCMLKLYQKRHPDINASAYSAYACLAIVIFFSVLGVVFGKGNTAFWIVFSIIHIIATLLLSTQLYYMGRWKLDSGIFRRILHVLYTDCIRQCSGPLYVDRMVLLVMGNVINWSLAAYGLIMRPNDFASYLLAIGICNLLLYFAFYIIMKLRSGERIKLIPLLCIVCTSVVWGFALFFFFQGLSTWQKTPAESREHNRDCILLDFFDDHDIWHFLSSIAMFGSFLVLLTLDDDLDTVQRDKIYVF
modifications: N-glycosylation (six sites on the ECD resolved in the EM map); disulfide bonds
notes: SIDT2, human, full-length; Homodimer in the cryo-EM map; the self rows mean protomer with protomer; also called SID-1 transmembrane family member 2; source: cloned, expressed and purified

Legend:
[1] = target: truncated extracellular domain of SIDT2 (SIDT2^ECD) (human); assay: AUC; sedimentation velocity (SV-AUC) of the truncated ECDs in solution, no RNA
[2] = target: the molecule itself; assay: cryo-EM structure; single-particle cryo-EM of SIDT1 (3.33 Å) and SIDT2 (3.17 Å); homodimers with a two-fold axis

Molecule	stoichiometry N [1]	stoichiometry N [2]
truncated extracellular domain of SIDT2 (SIDT2^ECD) (domain or fragment)	2	–
B1	–	2
B2	–	2

Reference: article PMC10770124, “Cryo-EM structures of human SID-1 transmembrane family proteins and implications for their low-pH-dependent RNA transport activity” (Cell Research, 2023)
